Results taken from the DeepSol protein solubility set.

Assay: soluble on expression in E. coli; label from the status in PepcDB or PDB records
With “MAPRGRYGPPSRRSENRVVVSGLPPSGSWQDLKDHMREAGDVCYADVYRDGTGVVEFVRKEDMTYAVRKLDNTKFRSHEGETAYIRVKVDGPRSPSYGRSRSRSRSRSRSLEH” the “soluble on expression in E. coli” value was “soluble”. In the case of “MGSDKIHHHHHHVRKFKIPNMGALLAFEAAARHESFTHAARELFLTESAVSRQINTLESNLGVRLFVRVKQRVMLTRAGKVYSAQVRRSLEQLDRDTLSIIAHGSGGGYLELAVLPTFASQWLIPRLAAFNAQYPDVRVNMGVRTGTFPFAETHFEAAIHYGKPTWPGTSADFLFSEEVVPVCAASLLKRPVQSAADLLDYPLVHSTTRPDGWAAWFANMGIDDNRTMQGVRYELHTMLISAAAAGLGIALVPRFFVDAQLEQLGLVIPLDAPVVADSAYYLVYPTELSHGKPLASFREWLLREAAAYSAVNPELGGPRDMD”, the “soluble on expression in E. coli” value is reported as “not soluble”. In the case of “MKEFWVWVEPFDRKIVSVALEAGANAVVIPEKGRVEEVKKVGRITVIAPDGDLKLGEDVVYVLIKGKEDEERAAKYPPNVKVIVETTDWTVIPLENLIAQREELYAVVKNAQEAEVALQTLEKGVKGVVLKSRDINEIKKVGQIVSEHEEKLELVTIKITKILPLGLGDRVCVDTISLLHRGEGMLVGNSSGGMFLVHAETEENPYVAARPFRVNAGAVHMYIRVPNNRTKYLCELKAGDKVMVYDYKGRGRVTYVGRAKVERRPMLLIEGRYENKKLSCILQNAETIRLTKPDGTPISVSELKEGDEVLGYVEEAGRHFGMKVEETIIEK”, the “soluble on expression in E. coli” value is reported as “not soluble”. In the case of “MGSDKIHHHHHHMQLKRMGYAQTKIRQGPNHRDGEQVTFLDVKQFFGLGHVRVGSWVSSEESLIAANMVFDALADLALVLGLPPKVMGLRERLNLAFGHGGQQGVMAHYSPSERTLALAKHAGAGAVAHEFWHAFDHHLSDTAMDIGRSQKARFASELWLNDVPLLCHPLNDRLEALFQSVLLSGDGEHPSDYVRRAIQLDKTYGRLYFSHPSELMARAFEAAIESEGDFEQVDTDSGEIHLLPLINPYLVTGTLEDIKTENKGELLPKFGSWGAMPQGAFPTPIHRQAIMKAMAGYFRPLGRALAKTLS”, the “soluble on expression in E. coli” value is reported as “not soluble”. For “QKPKLLYCSNGGYFLRIFPDGKVDGTRDRSDPYIQLQFYAESVGEVYIKSLETGQYLAMDSDGQLYASQSPSEECLFLERLEENNYNTYKSKVHADKDWFVGIKKNGKTKPGSRTHFGQKAILFLPLPVSSD”, the “soluble on expression in E. coli” value was “soluble”. For “MRFGEGSAKPIVSAATYGVGGNAFAQAIADPVSTVHSNKPELLVVDGYNVIHCTPRYEKLVYDHSDDPYSSDVHDMARTALINDVAAFAQGRYEAVIVFDGAGNISSERPNLPARGVRIEFSPTGVSADTVVQKLCIEAREEGRACSVVSSDGTIQAVVMGKGVTRISSRMLVDEIKQIDNDVHEAEEAPQIKMTLEHHHHHH”, the “soluble on expression in E. coli” value was “soluble”. In the case of “MMKVYRLYLRDEYLEMVKSGKKRIEVRVAYPQLKGMKRGDKIIFNDEVPAEVIEVKHYETFRQVLREEPIDKIFPDEPSFERALRRFHNLYPKWKENRYGVIAIKFKLLGRERK”, the “soluble on expression in E. coli” value is reported as “soluble”. With “MSSNDVLAQIAGLAKAAAELENDFSTDSEMQQDSEICDEVDAELFDDFETKPSSRKESSGTSRRTRMAHRELQGLQFANPGDEMSRFLPDSVDIISTNRSKRVAAEKQADLRDEPLHHDKTGKLSVTAKGQTLFFDLCDCLVVECDGCHWPCKQCKSRKCLIGCRQNRKEMVIRVEEMYTVTEAPGPVVNINPYFPGQIKD” the “soluble on expression in E. coli” value was “not soluble”. With “MGSDKIHHHHHHMKIAVINFSGNVGKTTVSRHLLLPRIQGAELISVESVNADEGKTTALRGGQFAELQEYLQTVNSAIVDIGASNVDQLLFLMQSYRGSHEDFDCFVVPTVPPLKQQQDTIATLIDLSRLGVPPSRLKILFNMTEPGRPVEQTFYLLLAYLAQHPIAVPNTACSLGANEIYGRIRGIKSDLGTLARDTTDYKSLIAKAKDATEKLALAQKLATRRLASGVVLELDACFGALDLHALSAGASPTETSAEA” the “soluble on expression in E. coli” value was “not soluble”. In the case of “MGSDKIHHHHHHENLYFQGMTQFKLIGFDLDGTLVNSLPDLALSINSALKDVNLPQASENLVMTWIGNGADVLSQRAVDWACKQAEKELTEDEFKYFKRQFGFYYGENLCNISRLYPNVKETLEALKAQGYILAVVTNKPTKHVQPILTAFGIDHLFSEMLGGQSLPEIKPHPAPFYYLCGKFGLYPKQILFVGDSQNDIFAAHSAGCAVVGLTYGYNYNIPIAQSKPDWIFDDFADILKITQ”, the “soluble on expression in E. coli” value is reported as “soluble”. In the case of “MERIAMNPLMQQAIQFANDHETAWDRSVRGNFGVHLDDPPPWNRLLGPVHDRGPVSGVVVVDGQTLASWGEPERADLTFSVAKLYLSILAGVAHDRGLLPDVDEPVGRRVPGIGFDAGRNARITWRHLLQQTSEWEGERFGVPDQADRYRAVAFGIPPDGRKGDARPLQEPGTYWEYNDVRINQLSYALLHLFRRPLPEVFREAVTRPLGASEDWQWVGYDNAWVDIDGVRMPSVPGGTHWGGGMSISARDQALIGRMLLDEGRAADGRQVLSPAWIQAMRTPCDIAPYYGYLIWLNHERKVFPSVPASSFFGIGAGSSFTWVEPERRMVVIVRWLDAAYADALFGRILAAVDAHRAGLEHHHHHH”, the “soluble on expression in E. coli” value is reported as “not soluble”. In the case of “MSLNLVSEQLLAANGLNHQDLFAILGQLAERRLDYGDLYFQSSYHESWVLEDRIIKDGSYNIDQGVGVRAISGEKTGFAYADQISLLALEQSAQAARTIVRENGEGKVKTLAAVAHQPLYTTLDPLQSMSREEKLDILRRVDKAAREADKRVQEVNASLTGVYELILVAATDGTLAADVRPLVRLSVSVQVEEDGKRERGASGGGGRFGYEYFLADLDGEVRADAWAKEAVRMALVNLSAVAAPAGTLPVVLGAGWPGVLLHEAVGHGLEGDFNRRGTSVFSGQIGEQVASALCTVVDDGTMMNRRGSVAIDDEGTPGQYNVLIENGVLKGYMQDKLNARLMGAAPTGNGRRESYAHLPMPRMTNTYMLAGQSTPQEIIESVEYGIYAPNFGGGQVDITSGKFVFSTSEAYLIENGKVTTPVKGATLIGSGIETMQQISMVGNDLKLDNGVGVCGKEGQSLPVGVGQPTLKVDNLTVGGTA”, the “soluble on expression in E. coli” value is reported as “not soluble”. For “MPPEMEGFLYLKSDGRKSWKKHYFVLRPSGLPPEMEGFLYLKSDGRKSWKKHYFVLRPSGLMYHDRRRTGFRQYETYMKQKQSADWQLDELLEELEALETQLNSSNGGDQLLLGVSGIPASSSRENVKSISTLPPPPPALSYHQTPQQPQLLHHHNNHLGYQNGIHQITSINSAASSCSSPDGDSAFGDSSSTESSNNRCRNSAFSSNDSCRDSLNTPSPTQVSPRNGELNAEEAKAQKIRQALEKMKEAKVTKIFVKFFVEDGEALQLLIDERWTVADTLKQLAEKNHIALMEDHCIVEEYPELYIKRVYEDHEKVVENIQMWVQDSPNKLYFMRRPDKYAFISRPELYLLTPKTSDHMEIPSGDQWTIDVKQKFVSEYFHREPVVYYAPKSKKPTTKDLTCLMNLHSNQVYTGIGWEKKYKSPTPWCISIKLTALQMKRSQFIKYICAEDEMTFKKWLVALRIAKNGAELLENYERACQIRRETLGPASSMSAASSSTAISEVPHSLSHHQRTPSVASSIQLSSHMMNNPTHPLSVNVRNQSPASFSVNSCQQSHPSRTSAKLEIQYDEQPTGTIKRAPLDVLRRVSRASTSSPTIPQEESDSDEEFPAPPPVASVMRMPPPVTPPKPCTPLTSKKAPPPPPKRSDTTKLQSASPMAPAKNDLEAALARRREKMATMEC”, the “soluble on expression in E. coli” value was “not soluble”. For “MSLITLTTDFGLKGPYVGEMKVAMLRINPNAKIVDVTHSVTRHSILEGSFVMEQVVKYSPKGTVHVGVIDPGVGTERRAIVIEGDQYLVVPDNGLATLPLKHIKVKSVYEIIPDKIRKFTGWEISSTFHGRDIFGPAGALIEKGIHPEEFGREIPVDSIVKLNVEPRKEGDVWILKVIYIDDFGNVILNLENYEKPRTVELLDFNLRLPYLETYGLVEKGEMLALPGSHDYLEIAVNMGSAAERLNVKVGDELRVRLLEGGSHHHHHH”, the “soluble on expression in E. coli” value was “soluble”. In the case of “MGSDKIHHHHHHMFQWKKLGKVFTPQDINNRPWLKEFAQAPATLVFDDFVRVYFSCRPPVDEHGMYVSYSAWVDLDRNNLFNVLRVSEKPILPLGQSGEFDEFGTYPVSVVRDENIFRAYYAGWTRCESVPFNVAIGMAISDDGDVFRKAGPGPIISYSPEEPFVMSGPKIRRFNGEWQLFYIAGRRWKLVDGRAEPVYKIRMAVSSDGTNWRKINKDLISSRIEEDEAQASPDVFYANGRYHMFFCYRYSEHYRGKKHGYRIGYAWSSDLIDWHRDDEKVGIDVSETGWDSEMISYPHVFELDGKVYMAYLGDQVGRYGFGLAQLEGELR”, the “soluble on expression in E. coli” value is reported as “not soluble”. For “MSLTQPPQQAISAAHSELEQNHRVLLQLMDTLVSQIKDYSEDVEFNLQNDSTIKNTIVEILSFISRSNQKDQLSLKVSQAVVNSLFGSNESKLCRDVLSLLLEKLCSLSIVARKDVVWWLVYALDPRKFNVPVVRSLLEVNLINIAEFDAVLVTAMKNGMAGATEFSMNLIRDTVMADSPILMRLDFIRILGYLRTINTPEIKAFLEEYEQCRAVPVSKTTSITKVERYYLVFTEWVKLQQRVETDDVVNIVFIRQLFEKGVIDSKEKVIEFIKAALELSVNSFKQSDPTGEVFTSIDALSRLITSLLVVQELNVEERKEYLNLLLSVVTLVFAKDHQTNMTSFNERPYFRLYSSLLSDWDKLRDHHFIRVSDSVVRKSLIEFDQYFFDIFASFLHSYQPIAFPGFSFAWITLISHRMFLPKVLRSKELYGWDKLVLLLIDLMKFLSQYIKKDNVPDSISVIYKGALRIFLGISNDVPEFLIQNHYKLVKNVPPTCIQLRNIILSAIPKKMMIPDPFVSEITEDNCKDIPQVFYDPSQDLKSLKKPIINYLRIPSSSLLRTICGGMFRTELEYENGIGYDENNVDVNLIHAIVTHVAVEVGLEVEKASKNAVFNVKSSYYTLLFGLLSDGNDEVKFHIIQAMVNQLRYPNVHTHWFNFALKLMFQSDQWPDDQLSTIQEIILRSLLERIIVNKPHPWGVVVTFMDLLKLEGTKMIEKPFINDIPEIHAIMKNLQKYALTSSSEGHHHHHH”, the “soluble on expression in E. coli” value was “soluble”. With “MGSDKIHHHHHHMEFFSTRNKILSINPNGLRSTSIQLRERIWNVFYKEEYDYYDTLEYTSYTTGIEDMMLEMGIKYEFPANKIYKNQNAEKLHKHVVQCEGMWYRIYDFIEKYLRVTDSEKTQRLTIEFNRILEEEVAPYRILNGLVVPIIGKSELNSIGETIDLEYESVSKHMTKALELYSDRKKPDYENSVKESISSVESMCSIITGLSGGAATLGNTLKKLKENGVNIHPALENAFKQLYGYTSDSGGIRHGSIEFVNVASEDAKYMLVSCSAFVNYLTEKWIKYNLK” the “soluble on expression in E. coli” value was “not soluble”. With “MSEAAQTLDGWYCLHDFRTIDWSAWKTLPNEEREAAISEFLALVDQWETTESEKQGSHAVYTIVGQKADILFMILRPTLDELHEIETALNKTKLADYLLPAYSYVSVVELSNYLASGSEDPYQIPEVRRRLYPILPKTNYICFYPMDKRRQGNDNWYMLSMEQRRELMRAHGMTGRKYAGKVTQIITGSVGLDDFEWGVTLFSDDALQFKKLVYEMRFDEVSARFGEFGSFFVGTRLPMENVSSFFHV” the “soluble on expression in E. coli” value was “soluble”. In the case of “KPPDPPNRVPEKKVVETSAFGHHVQLVNREGKAVGFIEIKESDDEGLDIHISANSLRPGASLGFHIYEKGSCVRPDFESAGGHFNPLNKEHGFNNPMGHHAGDLPNLEVGADGKVDVIMNAPDTSLKKGSKLNILDEDGSAFIIHEQADDYLTNPSGNSGARIVCGALLGNNEKQ”, the “soluble on expression in E. coli” value is reported as “soluble”. For “MKGLFLIFHGFEAFNGISKKIRYQVKALKECGLEMHTCWLDDTDNHKRRMVDESIIADYGFGIKGKILKRIEFDSIVHYVQKENIDFIYVRYVHNASPFSIRLMKLLKKTGARIVMEIPTYPYDQEYKGLPFVYQRILFIDKCFRQHLARYVDKIVTFSDYDIIWNRPTIRISNGIDFSEIPLRGPKNDTAHSLQLIAVATMHPWHGFDRVIAGMANYYRTHTDTHDYKVYLNIVGFGVPELVDSYKKDVAKHQLEKYIIFHSALYGKELDAVFEQSDMGIGSLARHRSGIDKIKTLKNREYAARGIPFVYSETDDDFEHQPYILKAAPDDSPLDIEKVIRFYQSLKTTPLQIRMSIEQSLSWKAQMQIVINETFE”, the “soluble on expression in E. coli” value was “not soluble”.
